From article PMC2817712
Changes are numbered by the printed parent chain. Names may count otherwise. Blank lines part the entries; values can stand above or below the binder they belong to.

Target: T1, CheA3P1, the isolated P1 (Hpt, histidine-containing phosphotransfer) domain of CheA3 (residues 1-135), unphosphorylated
T1 chain: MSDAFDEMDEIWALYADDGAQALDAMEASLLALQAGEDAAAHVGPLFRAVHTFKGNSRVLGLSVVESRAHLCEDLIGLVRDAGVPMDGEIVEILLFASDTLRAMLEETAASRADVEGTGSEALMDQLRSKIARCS
Assay: SPR
Details: chain shown with the change; CheA3P1 injected over surfaces coupled with the respective RR; CheA3P1 concentration ranging from 120 nM to 2 mM; parent: ND

Kd: 365 µM
B1: CheY4 (wild type) with an engineered C-terminal biotinylation tag, for SPR surfaces P12A; S13M; C16L; M17Y (protein)
chain: MTKTVLAVDDSAMIRLYVALTLREAGYEVIEASDGQEALDLALSRPVDAILTDQNMPRLDGLGFIRAFRSRPEGKGTPIVFLSTESADTLKAEARAAGALGWMVKPFTQAQLLAVMKKLLG

Kd: 678 µM
B2: CheY4 (wild type) with an engineered C-terminal biotinylation tag, for SPR surfaces P12A; S13M (protein)
chain: B1 chain with L16C, Y17M
